The values that follow come from publication PMC5085863 (The Biochemical journal, 2016).

Where two headings read alike, the source gives them in different places.

Common to all, as to assay: FRET or BRET
On the technique in general: BRET reads energy transfer from a luciferase to a nearby fluorophore.

Series [1] deals with the molecule itself.
Series [2] concerns the molecule itself. This is another data set of the same source.
Series [3] deals with the molecule itself. This is another data set of the same source.
Series [4] deals with the molecule itself. This is another data set of the same source.
Series [5] concerns the molecule itself. The source holds these as a separate data set.
Series [6] concerns the molecule itself. This is another data set of the same source.
Series [7] concerns the molecule itself. The source holds these as a separate data set.

By stoichiometry N is commonly meant the number of molecules, sites or subunits per partner or assembly.

B1: opsin tagged with the fluorescent proteins mTurquoise or SYFP2 (opsin-mTurquoise and opsin-SYFP2, co-expressed) (receptor, UniProt P15409 1-348, looked up)
chain: MNGTEGPNFYVPFSNVTGVVRSPFEQPQYYLAEPWQFSMLAAYMFLLIVLGFPINFLTLYVTVQHKKLRTPLNYILLNLAVADLFMVFGGFTTTLYTSLHGYFVFGPTGCNLEGFFATLGGEIALWSLVVLAIERYVVVCKPMSNFRFGENHAIMGVVFTWIMALACAAPPLVGWSRYIPEGMQCSCGIDYYTLKPEVNNESFVIYMFVVHFTIPMIVIFFCYGQLVFTVKEAAAQQQESATTQKAEKEVTRMVIIMVIFFLICWLPYASVAFYIFTHQGSNFGPIFMTLPAFFAKSSSIYNPVIYIMLNKQFRNCMLTTLCCGKNPLGDDDASATASKTETSQVAPA
For the protein B1, the “tetramer to dimer ratio (ρ)” value stood at 1.08 in the series “FRET or BRET [1]”, 1.79 in “FRET or BRET [2]”, 0.401 in “FRET or BRET [4]” and 484 in the series “FRET or BRET [6]”. Besides, the “stoichiometry N” value in “FRET or BRET [3]” is 4; in the series “FRET or BRET [5]”, 2; in the series “FRET or BRET [7]” it was no less than 12. Also, the “KD tetramer to higher order oligomers” value in “FRET or BRET [7]” was greater than 1150 molecules/μm^2.
